Measurements from patent publication US20120315277A1, “Compositions and Methods for the Therapy and Diagnosis of Influenza” (priority 2011, published 2012).
Positions count from the first letter of the chain named.

Columns and labels:
[1] = target: M2 protein on influenza A/Puerto Rico/8/34 (H1N1) virus particles (influenza A virus A/Puerto Rico/8/34 (H1N1)) (UniProt P06821); experiment: FAb fragments on whole PR8 virus
[2] = target: M2 protein on influenza A/Puerto Rico/8/34 (H1N1) virus particles (influenza A virus A/Puerto Rico/8/34 (H1N1)) (UniProt P06821); experiment: SPR, Fab on influenza virus (A/Puerto Rico/8/34)
[3] = test system: M2 (A/Hong Kong/483/97) expressed on CHO cells; type: binding, influenza A virus
[4] = test system: Influenza A (A/Puerto Rico/8/34) virus; type: binding, influenza A virus H1N1
[5] = target: T1, M2 protein on influenza A/Puerto Rico/8/34 (H1N1) virus particles (influenza A virus A/Puerto Rico/8/34 …, UniProt P06821 1-97); experiment: FAb fragments on whole PR8 virus
[6] = target: T1, M2 protein on influenza A/Puerto …; experiment: SPR, Fab on influenza virus (A/Puerto Rico/8/34)

cH14C2 Fab
Kd [1]: 4000 nM
koff [1]: 0.00286 s⁻¹
kon [1]: 500 M⁻¹ s⁻¹
Kd [2]: 4000 nM
koff [2]: 0.0018 s⁻¹
kon [2]: 500 M⁻¹ s⁻¹

B1: 3248_P18 (antibody, V domains shown)
VH: QVQLQESGPGLVKPSETLSLTCTVSGGSISAYHWSWIRQPPGKGLEWIGHIFDSGSTYYNPSLKSRVTISLDASKNQLSLRLTSVTASDTAIYYCARPLGSRYYYGMDVWGQGTTVTVSS
VL: DIQMTQSPSSLSASVGDRVTITCRASQSISRYLNWYQQKPGKAPKLLIYGASTLQNGAPSRFSGSGSGTDFTLTISSLQPEDSATYLCQQSYSVPAFGGGTKVEVK
FACS M2-HK MFI [3]: 967
Virus ELISA OD A450 [4]: 0.56

B2: TCN-032 Fab (Fab, V domains shown)
VH: QVQLQESGPGLVKPSETLSLTCTVSGSSISNYYWSWIRQSPGKGLEWIGFIYYGGNTKYNPSLKSRVTISQDTSKSQVSLTMSSVTAAESAVYFCARASCSGGYCILDYWGQGTLVTVS
VL: DIQMTQSPSSLSASVGDRVTITCRASQNIYKYLNWYQQRPGKAPKGLISAASGLQSGVPSRFSGSGSGTDFTLTITSLQPEDFATYYCQQSYSPPLTFGGGTRVEIK
Kd [5]: 3 nM
koff [5]: 0.0023 s⁻¹
kon [5]: 740000 M⁻¹ s⁻¹
Kd [6]: 3.2 nM
koff [6]: 0.0023 s⁻¹
kon [6]: 740000 M⁻¹ s⁻¹

B3: 3252_C13 (antibody, V domains shown)
VH: QVQLQESGPGLVKPSETLSLTCTVSGASISSDYWSWIRLPPGKGLEWIGYIYNRGSTKYTPSLKSRVTISLDTAENQFSLRLRSVTAADTAIYYCARHVGGHTYGIDYWGQGTLVTVSS
VL: DIQMTQSPSSLSASVGDRVTITCRASQSISNYLNWYQHKPGEAPKLLNYAASSLQSGVPSRFSASGSGTDFTLTISSLQPEDFATYYCQQSYNTPITFGQGTRLEIK
FACS M2-HK MFI [3]: 449

B4: 3255_J06 (antibody, V domains shown)
VH: B3 VH with I92V
VL: B3 VL with T74S, S77G, Q100P
FACS M2-HK MFI [3]: 442

B5: 3362_B11 (antibody, V domains shown)
VH: QVQLQASGPGLVKPSETLSLTCTVSGDSITSGAYYWTWIRQHPGKGLEWIGYIYYSGNTYYNPSLKSRVTISLDTSKNQFSLKVNSVTAADTAVYYCARAASTSVLGYGMDVWGQGTTVTVSS
VL: B3 VL with N31R, H38Q, K39E, E42K, N48V, A64G, N93S, I96L
FACS M2-HK MFI [3]: 218
Virus ELISA OD A450 [4]: 1.83

B6: 3420_I23 (antibody, V domains shown)
VH: QVQLQESGPGLVKPSETLSVTCKVSGDSISSYSWSWIRQPPGKGLEWVGYLYYSGSTKYNPSLKSRTTISVDTSTNQLSLKLSFVTAADTAVYFCARTGSESTTGYGMDVWGQGTTVTVSS
VL: B3 VL with N31T, H38Q, E42K, N48I, Q55H, A64G, T72A, N93S, T94P
FACS M2-HK MFI [3]: 112

B7: 3253_P10 (antibody, V domains shown)
VH: QVQLQESGPGLLKPSDTLALTCTVSGGSITSDYWSWIRQPPGRGLDWIGFFYNGGSTKYNPSLKSRVTISADTSKNQLSLKLTSVTAADTGVYYCARHDAKFSGSYYVASWGQGTRVTVSS
VL: DIQMTQSPSSLSASVGDRVTISCRASQSISTYLNWYQQQPGKAPKVLISGATDLQSGVPSRFSGSGSGTDFTLTISSLQPEDFATYYCQQSYNTPLIFGQGTKLEIK
FACS M2-HK MFI [3]: 43
Virus ELISA OD A450 [4]: 0.50

B8: 3244_I10 (antibody, V domains shown)
VH: B7 VH
VL: B7 VL with S49F, D53N
FACS M2-HK MFI [3]: 434
Virus ELISA OD A450 [4]: 3.01

B9: 3243_J07 (antibody, V domains shown)
VH: B7 VH with A100V
VL: B7 VL with D53N
FACS M2-HK MFI [3]: 131
Virus ELISA OD A450 [4]: 2.94

B10: 3241_G23 (antibody, V domains shown)
VH: QVQLQQSGPGLVKPSQTLSLTCTVSGGPVSGGGYSWNWIRQRPGQGLEWVGFMFHSGSPRYNPTLKSRITISVDTSKNLVSLKLSSVTAADTAVYFCARVGQMDKYYAMDVWGQGTTVTVSS
VL: DIQMTQSPSSLSSSVGDRVTITCRASQSIGAYVNWYQQKAGKAPQVLIFGASNLQSGVPSRFSGSGSGTDFTLTISSLQPEDFATYFCQQTYSTPITFGQGTRLEIK
FACS M2-HK MFI [3]: 1697
Virus ELISA OD A450 [4]: 3.02

B11: 3259_J21 (antibody, V domains shown)
VH: QVQLQESGPRVVRPSETLSLTCTVSGGSISSYNWIWIRQPPGKGLEWIGHIYDYGRTFYNSSLQSRPTISVDASKNQLSLRLTSVTASDTAVYYCARPLGILHYYAMDLWGQGTTVTVSS
VL: DIQMTQSPLSVSVSVGDRVTIACRASQSIDKFLNWYQQKPGKAPKLLIYGASNLHSGAPSRFSASGSGTDFTLTITNIQTEDFATYLCQQSFSVPAFGGGTKVEIK
FACS M2-HK MFI [3]: 1673
Virus ELISA OD A450 [4]: 2.40

B12: TCN-031 Fab (Fab, V domains shown)
VH: EVQLVESGGGLVQPGGSLRISCAASGFTVSSNYMSWVRQAPGKGLEWVSVIYSGGSTYYADSVKGRFSFSRDNSKNTVFLQMNSLRAEDTAVYYCARCLSRMRGYGLDVWGQGTTVTVS
VL: DIQMTQSPSSLSASVGDRVTITCRTSQSISSYLNWYQQKPGKAPKLLIYAASSLQSGVPSRFSGSGSGTDFTLTISGLQPEDFATYYCQQSYSMPAFGQGTKLEIK
Kd [5]: 14 nM
koff [5]: 0.014 s⁻¹
kon [5]: 1e+06 M⁻¹ s⁻¹
Kd [6]: 14 nM
koff [6]: 0.014 s⁻¹
kon [6]: 1e+06 M⁻¹ s⁻¹

B13: 3136_G05 (antibody, V domains shown)
VH: QVQLQESGPGLVKPSETLSLTCSVSGGSISSDFWSWIRQPPGKGLEWIGYVYNRGSTKYSPSLKSRVTISADMSKNQFSLNMSSVTAADTAVYYCAKNGRSSTSWGIDVWGKGTTVTVSS
VL: DIQMTQSPSSLSASVGDRLTITCRASQSISTYLHWYQQKPGKAPKLLIYAASSLQSGVPSRFSGSRSGTDFTLTISSLQPDDFATYYCQQSYSPPLTFGPGTKVDMK
FACS M2-HK MFI [3]: 109

B14: 3139_P23 (antibody, V domains shown)
VH: QVQLQESGPRLVKPSESLSLTCTVSGGSISNSFWGWIRQPPGEGLEWIGYVYNSGNTKYNPSLKSRVTISRDTSKSQLYMKLRSVTAADTAVYYCARHDDASHGYSISWGHGTLVTVSS
VL: DIQMTQSPSSLSASVGDRVTITCRASQTISTYLNWYQQKSGKAPKLLIYAASGLQSGVPSRFSGSGSGTDFTLTISSLQPEDFATYFCQQSYNTPLTFGQGTKVEIK
FACS M2-HK MFI [3]: 110
Virus ELISA OD A450 [4]: 1.02

B15: 3260_D19 (antibody, V domains shown)
VH: DMQLVESGGGLVPPGGSLRLSCAASGFSVSDNYINWVRQAPGKGLDWVSVFYSADRTSYADSVKGRFTVSSHDSKNTVYLQMNSLRAEDTAVYYCARVQKSYYGMDVWGQGTTVTVSS
VL: GIQMTQSPSSLSASVGDRVTITCRASQSISRYLNWYLQKPGKAPKLLISGASSLQSGVPSRFSGTGSGTEFTLTISSLQPEDFATYYCQQTFSIPLFGQGTKVEIK
FACS M2-HK MFI [3]: 846
Virus ELISA OD A450 [4]: 2.46

B16: 3242_P05 (antibody, V domains shown)
VH: B15 VH
VL: B15 VL
FACS M2-HK MFI [3]: 596
Virus ELISA OD A450 [4]: 0.50

B17: 3245_O19 (antibody, V domains shown)
VH: EVQLVESGGGLVQPGGSLRLSCTASGLSVSSTYMNWVRQAPGKGLEWVSVFYSETRTYYADSVKGRFTVSRHNSNNTLYLQMNSLRVEDTAVYYCARVQRLSYGMDVWGQGTTVTVSS
VL: DIQMTQSPSSLSASVGDRVTITCRASQSISTYLNWYQKRPGKAPKLLVYGASTLQSGVPSRFSGSGSGTDFTLTIASLQPEDSATYYCQQTYSIPLFGQGTRLEIK
FACS M2-HK MFI [3]: 919
Virus ELISA OD A450 [4]: 3.51

B18: 3244_H04 (antibody, V domains shown)
VH: B17 VH with V87A
VL: B17 VL with T53S, T85V
FACS M2-HK MFI [3]: 963
Virus ELISA OD A450 [4]: 3.31
